Laboratory results as given in IntAct's records for PubMed 17889654.

B1: Transcriptional coactivator yorkie (Drosophila melanogaster (Fruit fly)), Q45VV3 (parent)
chain: MLTTMSASSNTNSLIEKEIDDEDMLSPIKSNNLVVRVNQDTDDNLQALFDSVLNPGDAKRPLQLPLRMRKLPNSFFTPPAPSHSRANSADSTYDAGSQSSINIGNKASIVQQPDGQSPIAAIPQLQIQPSPQHSRLAIHHSRARSSPASLQQNYNVRARSDAAAANNPNANPSSQQQPAGPTFPENSAQEFPSGAPASSAIDLDAMNTCMSQDIPMSMQTVHKKQRSYDVISPIQLNRQLGALPPGWEQAKTNDGQIYYLNHTTKSTQWEDPRIQYRQQQQILMAERIKQNDVLQTTKQTTTSTIANNLGPLPDGWEQAVTESGDLYFINHIDRTTSWNDPRMQSGLSVLDCPDNLVSSLQIEDNLCSNLFNDAQAIVNPPSSHKPDDLEWYKIN
partner: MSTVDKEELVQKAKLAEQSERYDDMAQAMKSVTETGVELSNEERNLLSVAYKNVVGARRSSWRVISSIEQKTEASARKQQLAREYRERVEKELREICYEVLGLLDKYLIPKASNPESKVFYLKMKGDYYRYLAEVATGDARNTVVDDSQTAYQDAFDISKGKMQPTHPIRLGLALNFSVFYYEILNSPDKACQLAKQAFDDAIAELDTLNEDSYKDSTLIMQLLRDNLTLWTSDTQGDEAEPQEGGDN

Variants of: B1
Conditions: with 1433z_drome 14-3-3zeta
MLTTMSASSNTNSLIEKEIDDEDMLSPIKSNNLVVRVNQDTDDNLQALFDSVLNPGDAKRPLQLPLRMRKLPNSFFTPPAPSHSRANSADSTYDAGSQSSINIGNKASIVQQPDGQSPIAAIPQLQIQPSPQHSRLAIHHSRARASPASLQQNYNVRARSDAAAANNPNANPSSQQQPAGPTFPENSAQEFPSGAPASSAIDLDAMNTCMSQDIPMSMQTVHKKQRSYDVISPIQLNRQLGALPPGWEQAKTNDGQIYYLNHTTKSTQWEDPRIQYRQQQQILMAERIKQNDVLQTTKQTTTSTIANNLGPLPDGWEQAVTESGDLYFINHIDRTTSWNDPRMQSGLSVLDCPDNLVSSLQIEDNLCSNLFNDAQAIVNPPSSHKPDDLEWYKIN [S145A] was tested, and the “effect of a mutation on the interaction” value was “decreasing interaction”.
